Assay results published in the nanobody polyreactivity screen of Harvey et al. (2022).

Experiment: yeast display, Sf9 membrane polyspecificity reagent, FACS + sequencing; frameworks hold sequencing errors
In short: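 A nanobody's polyreactivity label depends on the gate it was sorted from. Yeast display cells were stained with 10% biotinylated, detergent-solubilized Sf9 membrane reagent for 1 hour at 4 °C, enriched on streptavidin microbeads and sorted by FACS. The low and high (top ~1%) gates were set on anti-HA fluorescence for expression and streptavidin fluorescence for reagent binding.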

| Sequence | polyreactivity (PSR sort gate) |
| --- | --- |
| QVQLVESGGGLVQAGGSLRLSCAASGLIIPFYAMGWYRQAPGKERELVAAISWSAGSTYYADSVKGRFTISRDNAKNTVYLQMNSLKPEDTAVYYCAATAYYYYDYDYWGQGTQVTVSS | low polyreactivity |
| QVQLVESGGGLVQAGGSLRLSCAASGRTFFYYTMGWYRQAPGKERELVAAISRSGGSTYYADSVKGRFTITRDKAKNTVYLQMNSLKPEDTAVYYCAADRSRNFDWGQGTQVTVSS | high polyreactivity |
| QVQLVESGGGLVQAGGSLRLSCAASGFTFGAYAKGWSRQAPGKEWELVASISWSGTSTYYADSVKGRFTISRDNAKNTVYLQMNSLKPEDTAVYYCAAGYRSTRYDYWGQGTQVTVSS | high polyreactivity |
| QVQRVESGGGLVQAGGSLRLSCAASGSIFNSNAMGWYRLAHGKERELVAAINWRGGSTYYADSVKGRFTISRDNAKNTVYLQMNSLKPEDSAVYYCAAVGWFHDYYWGQGTQLTVSS | high polyreactivity |
| QVQLVESGGGLVQAGGSLRLSCAATGRNFAVNAIGWYRQAPGKERELVASIRWSGGGTYYADSVKGRFTISRDNAKNTVYLQMNCLKPEDTAVYYCKALRKTYRLDYWGQGTQVTVSS | high polyreactivity |
| QVQLVESGVGLVQAGRNLRLSCAASGIIFYLNAMGWYRQAPGKERELVAAISNGTSTNYADSVKGRFTISRDNAKNTVYLQMNSLKPEDTAVYYCAADDLRYNSRSSNYRGDSWGQGTQVTVSS | low polyreactivity |
| QVQLVESGGGLVQAGGSLRLSCAASGRIFVYNTMGWYRQAPGKERELVAAITSGGNTYYADSVKGRFTISRDNAKNSVYLQMNSLKPEDTAVYYCNAYPGYDPYRRYDYWGQGTQVTVSS | high polyreactivity |
| QVQLVESGGGLVQAGGSLRLSCAASGIIFKRYTMGWYRQAPGKERELVAAITNRGGTYYADSVKGRFTISRDNAKNTVYLQMNSLKPEDTAVYYCAARYYWIDFKFGGPRDYWGQGTQVTVSS | high polyreactivity |
| QVQLVESGGGLVQAGGSLRLSCAASGRTFRYYAMGWYRQAPGKERELVASITKRGGSTYYADSVKGRFTISRDNAKNTVYLQMNSLKPEDTAVYYCNTRTGSFFQGYYWGQGTQVTVSS | high polyreactivity |
| QVQLVESWGGLVQAGGSLRLSCAASGNLFADYAMGWYRQAPGTERELVAAISRGGITSYADSVKGRFTISRDNAKNTVYLQMNSLKPEDTAVYYCATDRYDVYDSLGFGYWGQGSQVTVSS | low polyreactivity |
| QVQLVESGGGLVQAGGSLRLSCAASGFTFSSYAMGWSRQAPGKERELVAAISTRGGSTYYADSVKGRFTISRDNAKNTVYLQMNSLKPEDTAVYYCATGGRGGRRYEYWGQGTQVTVSS | low polyreactivity |
| QVQLVETGGGLVQAGGSLRLSCAASGYIFYPYTMGSYRPAPGKATELVAAITWSGSTYSADSVQGRFTMSRDTAKNTVYLQMKSLKPEDTAVYYCAADFDSYDSYTYLQYDYWGQGTQVTVSS | low polyreactivity |
| QFQLVESGGGLVQAGGSLRLSCAASGITFRDYAMGWYRQAPGKERELVAAISTRGVRTYYADSVKGRFTISRDNAKNTVYLQMNSLKPEDTAVYYCAARSVTYWWVGYEFYYWGQGTQVTVSS | high polyreactivity |
| QVHLVESGGGLVQAGGRLRLSCAASGYIFSVYAMGLYRQAPGKERELVAAISSGGSTYYADSLKGRLTISRDNAKYTVYLQMNSLKPEDTAVYYCAAESVYVYWYYVDYDYWGQGTQVTVSS | high polyreactivity |
| QVQLVESGGGLVQAGGSLRLSCAASGSTLTRNAMGWYRQAPGKERELVAAITTSGGRTYYADSVKGRFTISRDNAKNTVYLQMNSLKPEDTAVYYCAARQRSEYVSGSLFYYWGQGTQVTVSS | high polyreactivity |
| QVQLVESGGGLVQAGGRLRLSCAASGISFRFNAMGWYRQAPGKEREFVAAITYSGDSTYDADSVMGRFTISRDNAKNTVYLQKNSLKPEDTAVYYCAADYYAIYRRIFYYWGQGTQVTVSS | low polyreactivity |
| QVQLVESGGGLVQAGGSLRLSCAASGLTYANAKGWYRQAPGKERELVATIRYSGGSTYYADSVKGRFTISRDNAKNTVYLQMNSLKPEDTAVYYCAARRTAGYRSGEYDYWGQGTQVTVSS | high polyreactivity |
| QVQLVESGGGLVQAGGSLRLSCAASGRTYGIYAMGWYRQAPGKEREFVAAISWSSGGSTYYADSVKGRFTISRDNAKNTVYFQMISLKPEDTAVYYCNVDTIYNLESDYWGQGTQVTVSS | low polyreactivity |
| QVHLVESGGGLVQAGCSLRLSCAASGFTFYDYAMGWYRQAPGKERELVAGISRGDSTYYADSVKGRFTISRDNAKNTVYLQKNSLKPEDTSVYYCAADARSYDALDYSDLLYDYWGHGTQVTVSS | low polyreactivity |
| QVQLVESGGGLVQAGGSLRLSCAASGRISKRNVMGWYRQAPGKERELVAGITSTGSTSYADSVKGRFTISRDNAKNTVYLQMNSLKPEDTAVYYCAARGQATYNWGQGTQVTVSS | high polyreactivity |
| QVQLVESGGAFVQAGGTLRLICAASGRIFLYYAMGWYRHAPGKERELFAAIRISGGSTYYADSVKGRFTISRDNAKNTVYLQMNSLNAVDPAVYYCNADHKTIYPKYRGRFYYWGQGTQVTVTS | high polyreactivity |
| QLQLVESGGGLVQAGGSLRLSCAASGRIFGNYAMGWYRQAPGKERELVASINIGGGSTYYADSVKGRFTISRDNAKNTVYLQMNSLKQEATAVYYCAAPNTTDYWPAQPGFDYWGQGTQVTVSS | low polyreactivity |

| Sequence | polyreactivity (PSR sort gate) |
| --- | --- |
| QVQLVESGGGLVHAGGSLRLSCAASGLTFYYYDMGWYRQAPGKERELVAAITRRGGSTYYADSVKGRFTISRDNAKNTVYLQMNSLKPEDTAVYYCNALSRTVSHEADDYWGQGTHVTVSS | high polyreactivity |
| QVQLVESGGGLVQAGGSLRLSCAASGLTFNRNAMGWYRQAPGKERELVARISRGGSTNYADSVKGRFTISRDNAKNTVYLQMNSLKPEDTAVYYCAKRGNPRSVVHYNSWGQGTQVTVSS | high polyreactivity |
| QVQLVESGGGLVQAGGSLRLTCAASGRTFAINVMGWYIQAPGKERELVASIRGRGGRTNYADSVKGRFTISRDNAKNTVYLQMNRLKPEDTAVYYCAASQWWRYDYWGQGTQVTVSS | high polyreactivity |
| QVQLVESGGGLVQAGGSLRLSCAASGSTFVTYAMGWYRQAPGKEREFVAAISTTGTGRTYYADSVKGRFTISRDNAKNTVYLQMNSLKPEDTAVYYCAADLYGTYDYWGQGTQVTVSS | low polyreactivity |
| QVQLVESGGGIVQAGGSLRLSCAASGSTFRGNDMGWYRQAPGKERELVASIDWSGGSTYYADSVKGRFTISRDNAKNTVYLQMNSLKPEDTAVYYCAADTSYWYDYYIDYVGYYYWGQGTQVTVAS | high polyreactivity |
| QVQLQESGGGLVHAGGSLRLSCPASGTISFINMMGWYRQAPGRERELVASINFGANTNYADSVKGRFTISRDNAKNTVYLQLKSLKPEDTAVYYCAVYCAWTIGFTYWGQGTQVTVRS | high polyreactivity |
| QVQLVESGGGLVQAGGSLRLSCAASGFTITKYAMGWYRQAPGKERALVAAISRSAGSTYYADSVKGRFTISRDNAKHTVYLQMNSLKPEDTAVYYCNAYPKGRYAAAFPGMDYWGQGTQVTVSS | high polyreactivity |
| QVQLVESGGGLVQAGGSLRLSCAASGFIFRRNVMGWYRQAPGKERELVAAISRSGASTYYADSVKGRFTISRDNAKNTVYLQMNSLKPEDTAVYYCNKRDKVTYSYDYWGQGTQVTVSS | high polyreactivity |
| QVQLVESGAGLVQAGGSLRLSCAASGFTFPYYAMGWYRQAPGKERELVAAINYSGSSTDYADSVKGRFTISRDNAKNTVYLQMNSLKPEDTAVYYCAATPAYYYQAVTEDDYWGQGTHVTVSS | high polyreactivity |
| QVQLVESGGGLVQAGGSLRLSCAASGSTFRYYAMGWYRQAPGKERELVAAISWGAGSTYYADSVKGRFTISRDNAKNTVYLQMNSLKPEDTAVYYCNTLQITGWYDYWGQGTQVTVSS | high polyreactivity |
| QVQLVESGGGLVQAGGSLRLSCAASGLIFRHYAMGWYRQAPGKERELVDAITRSGGSTNYADSVKGRFTISRDNAKNTVYLQMNSLKPEDTAVYYCNAGIRYFVVGRSSYDYWGQGTQVTVSS | low polyreactivity |
| QVQLVESGGGLVQAGGSLRLSCAASGSIFPDYALGWYRQPPGKERELVAAITWRDDSTYYADSVKGRFTSSRDKAKNTVYLQMNSLKPEETAVYYCNASAMDPLYAKDDYWGQGTQVTVSS | low polyreactivity |
| QVQLVESGGGLVQAGGSLRLSCAASGSTFYGYAMGRYRQSPGKERELVAAITRSGGSTYYADSVKGRFTISRDNAKNTVYLQMNSLKPEDTEVYYCNKYGYKGGVGYDYWGQGTQVTVSS | high polyreactivity |
| QVQLVESGGGLVQAGGSLRLSCAASGSTISYYAMGWYRQAPGKERELVAAITRSGGSTYYADSVKGRFTISRDNAKNTFYLQMNSLKPEDTAVYYCAKGWRYFVGWGQRSRYYFWGQGTQVTVSS | high polyreactivity |
| QVQLVESGGGLVQAGGSLRLSSAPSGIIIDYYAMGWYRQSPGKERELVAAITSGGSTSYADSEKGGFTISRDNAKKTVYLQMNSLKPEDTAVYYCNTEPSGYESGYWGQGTQVTVSS | low polyreactivity |
| QVQLVESGGGLVQAGGSLRLSCAASGITFTSYVMGWYRQAPGKERELVAAIRWSGGRTYYADSVKGRFTISRDNAKNTVYLQLNSLKPEDTAVYYCNRVTRSHVDYWGQGTQVTVSS | high polyreactivity |
| QGQLVESGGGLVQAGGKLRLSCAASGSIFVRYAIGWYRQAPGKERELVAAISTRGDTTYYADSVKGRFTNSRDNAKNTVYLQLNSLKPEDTAVFYCAAVASQYPGPRNYDYWGQGTQVTVSS | low polyreactivity |
| QVQLVESGGGLVQAGGSLRLSCAASGRIFRINAMGWYRPAPGKERELVAAITRGGSTNYADSVKGRFTISRDNAKNTVYLQMNSLKPEDTAVYYCAADVSTYYYPGWFKLYLFDYWGQGTQVTVSS | high polyreactivity |
| QVQLVESGGGLVQAGRSLRLSCAASGSTFDGYAMGWYRQAPGKERELVAAISYSGSSTYYADSVKGRFTNSRDNAKNTVYLQMNSLKPEDTAVYYCAVDDTHPFGPDGGGDYWGQGTQVTVSS | low polyreactivity |
| QVQLVESGGGLVQAGGSLRLSSAASGITFYFNAMRWYRQATGKVSEFVAAISFSGGGTYYADSVKGRFTISRDNAKITDYLDMNSLKPADTAVYYCNADYGRGTLRSIYDYWGQGTQVTVTS | low polyreactivity |
| QVQLVESGGGIVQAGGSLRLSCAASGRTFRKNAMAWYRQAPGKERELVAAISASGTSTNYADSVKGRFTISRDNAKNTVYLQMISLIPEDTSVYYCDARSYGIYDYWGQGTQVTVSS | high polyreactivity |
